Reference: patent US20120129237A1

Target: LDLR (LDL receptor) of HepG2 cells (UniProt P01130)
Test: cell-based or functional assay

LDL uptake assay (DiI-LDL, HepG2 cells) (% more function than wildtype PCSK9): 50
Substance: PCSK9c polypeptide (novel PCSK9 variant) (from UniProt Q8NBP7 175-692) (enzyme)
